Assay results from the supplement of paper PMC6757056.
± gives the standard deviation of the averaged measurements.

B1: library; a variant is named by its letters at N, in order (parent)
chain: GCUGUCACCGAGAAACUGUGAAGUAUAUCUUAAACCUGGGCACUUAAAAGAUAUAUGGAGUUAGUAGUGCAACCUGCUCGGUCUGAUGAGUCCNNNNNNGGACGAAACAGC

Key:
cyclic di-GMP [1] = variants of: B1; experiment: normalized RNA/DNA level without ligand (relative to sTRSVctl = 100) (log10 (% of sTRSVctl)); HEK293T; ligand: cyclic di-GMP (c-di-GMP-II aptamer); higher = less ribozyme self-cleavage, higher mRNA level; settings: reporter: mCherry (pCS4076), ligand present: no
Summary of the method: (§1)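 HEK293T cells were transfected with library plasmids carrying ribozyme switches linked to an mCherry reporter, or an eGFP reporter in some ligand experiments, at 4 µg per well of a 6-well plate, with any ligand added 1 h beforehand. After 72 h, total RNA was extracted with EDTA, reverse-transcribed, amplified, barcoded and sequenced. RNA level was defined as RNA reads over DNA reads, normalized to a spiked-in non-cleaving sequence or to the top-ranked sequences. That value was multiplied by 100 and converted to log10, the top set was 25 sequences, and only sequences with ≥100 DNA reads were retained.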

cyclic di-GMP [2] = variants of: B1; experiment: normalized RNA/DNA level with ligand (relative to sTRSVctl = 100) (log10 (% of sTRSVctl)); HEK293T; ligand: cyclic di-GMP (c-di-GMP-II aptamer); ligand concentration (+) RNA-Seq: 1 mM; higher = less ribozyme self-cleavage, higher mRNA level; settings: reporter: mCherry (pCS4076), ligand present: yes
Summary of the method: as §1

Variant | normalized RNA/DNA level without ligand (log10) (cyclic di-GMP [1]) | normalized RNA/DNA level with ligand (log10) (cyclic di-GMP [2])
GCUGUCACCGAGAAACUGUGAAGUAUAUCUUAAACCUGGGCACUUAAAAGAUAUAUGGAGUUAGUAGUGCAACCUGCUCGGUCUGAUGAGUCCUUUUAAGGACGAAACAGC [UUUUAA] | 1.725 ± 0.014 | 1.86 ± 0.11
GCUGUCACCGAGAAACUGUGAAGUAUAUCUUAAACCUGGGCACUUAAAAGAUAUAUGGAGUUAGUAGUGCAACCUGCUCGGUCUGAUGAGUCCUUUUACGGACGAAACAGC [UUUUAC] | 1.74 ± 0.055 | 1.87 ± 0.14
GCUGUCACCGAGAAACUGUGAAGUAUAUCUUAAACCUGGGCACUUAAAAGAUAUAUGGAGUUAGUAGUGCAACCUGCUCGGUCUGAUGAGUCCUUUUAGGGACGAAACAGC [UUUUAG] | 1.74 ± 0.022 | 1.89 ± 0.065
GCUGUCACCGAGAAACUGUGAAGUAUAUCUUAAACCUGGGCACUUAAAAGAUAUAUGGAGUUAGUAGUGCAACCUGCUCGGUCUGAUGAGUCCUUUUAUGGACGAAACAGC [UUUUAU] | 1.7 ± 0.025 | 1.87 ± 0.095
GCUGUCACCGAGAAACUGUGAAGUAUAUCUUAAACCUGGGCACUUAAAAGAUAUAUGGAGUUAGUAGUGCAACCUGCUCGGUCUGAUGAGUCCAUUGUGGGACGAAACAGC [AUUGUG] | 1.605 ± 0.014 | 1.84 ± 0.11
GCUGUCACCGAGAAACUGUGAAGUAUAUCUUAAACCUGGGCACUUAAAAGAUAUAUGGAGUUAGUAGUGCAACCUGCUCGGUCUGAUGAGUCCAUUGUUGGACGAAACAGC [AUUGUU] | 1.59 ± 0.025 | 1.77 ± 0.12
GCUGUCACCGAGAAACUGUGAAGUAUAUCUUAAACCUGGGCACUUAAAAGAUAUAUGGAGUUAGUAGUGCAACCUGCUCGGUCUGAUGAGUCCCUUUAGGGACGAAACAGC [CUUUAG] | 1.73 ± 0.095 | 1.84 ± 0.19
GCUGUCACCGAGAAACUGUGAAGUAUAUCUUAAACCUGGGCACUUAAAAGAUAUAUGGAGUUAGUAGUGCAACCUGCUCGGUCUGAUGAGUCCCUUUACGGACGAAACAGC [CUUUAC] | 1.73 ± 0.019 | 1.84 ± 0.1
GCUGUCACCGAGAAACUGUGAAGUAUAUCUUAAACCUGGGCACUUAAAAGAUAUAUGGAGUUAGUAGUGCAACCUGCUCGGUCUGAUGAGUCCCUUUAUGGACGAAACAGC [CUUUAU] | 1.58 ± 0.047 | 1.79 ± 0.11
GCUGUCACCGAGAAACUGUGAAGUAUAUCUUAAACCUGGGCACUUAAAAGAUAUAUGGAGUUAGUAGUGCAACCUGCUCGGUCUGAUGAGUCCAUUUCAGGACGAAACAGC [AUUUCA] | 1.701 ± 0.013 | 1.85 ± 0.12
GCUGUCACCGAGAAACUGUGAAGUAUAUCUUAAACCUGGGCACUUAAAAGAUAUAUGGAGUUAGUAGUGCAACCUGCUCGGUCUGAUGAGUCCAUUUCCGGACGAAACAGC [AUUUCC] | 1.79 ± 0.019 | 1.9 ± 0.092
GCUGUCACCGAGAAACUGUGAAGUAUAUCUUAAACCUGGGCACUUAAAAGAUAUAUGGAGUUAGUAGUGCAACCUGCUCGGUCUGAUGAGUCCGUUUCAGGACGAAACAGC [GUUUCA] | 1.648 ± 0.0058 | 1.79 ± 0.12
GCUGUCACCGAGAAACUGUGAAGUAUAUCUUAAACCUGGGCACUUAAAAGAUAUAUGGAGUUAGUAGUGCAACCUGCUCGGUCUGAUGAGUCCGUUGUUGGACGAAACAGC [GUUGUU] | 1.67 ± 0.038 | 1.81 ± 0.098
GCUGUCACCGAGAAACUGUGAAGUAUAUCUUAAACCUGGGCACUUAAAAGAUAUAUGGAGUUAGUAGUGCAACCUGCUCGGUCUGAUGAGUCCGUUGUCGGACGAAACAGC [GUUGUC] | 1.53 ± 0.11 | 1.73 ± 0.087
GCUGUCACCGAGAAACUGUGAAGUAUAUCUUAAACCUGGGCACUUAAAAGAUAUAUGGAGUUAGUAGUGCAACCUGCUCGGUCUGAUGAGUCCGUUGUGGGACGAAACAGC [GUUGUG] | 1.66 ± 0.09 | 1.82 ± 0.079
GCUGUCACCGAGAAACUGUGAAGUAUAUCUUAAACCUGGGCACUUAAAAGAUAUAUGGAGUUAGUAGUGCAACCUGCUCGGUCUGAUGAGUCCAUUUACGGACGAAACAGC [AUUUAC] | 1.733 ± 0.0013 | 1.88 ± 0.1
GCUGUCACCGAGAAACUGUGAAGUAUAUCUUAAACCUGGGCACUUAAAAGAUAUAUGGAGUUAGUAGUGCAACCUGCUCGGUCUGAUGAGUCCAUUUAGGGACGAAACAGC [AUUUAG] | 1.63 ± 0.065 | 1.77 ± 0.077
GCUGUCACCGAGAAACUGUGAAGUAUAUCUUAAACCUGGGCACUUAAAAGAUAUAUGGAGUUAGUAGUGCAACCUGCUCGGUCUGAUGAGUCCAUUUAUGGACGAAACAGC [AUUUAU] | 1.74 ± 0.037 | 1.84 ± 0.073
GCUGUCACCGAGAAACUGUGAAGUAUAUCUUAAACCUGGGCACUUAAAAGAUAUAUGGAGUUAGUAGUGCAACCUGCUCGGUCUGAUGAGUCCUUUUCAGGACGAAACAGC [UUUUCA] | 1.8 ± 0.025 | 1.91 ± 0.12
GCUGUCACCGAGAAACUGUGAAGUAUAUCUUAAACCUGGGCACUUAAAAGAUAUAUGGAGUUAGUAGUGCAACCUGCUCGGUCUGAUGAGUCCGUUUACGGACGAAACAGC [GUUUAC] | 1.74 ± 0.029 | 1.84 ± 0.13
GCUGUCACCGAGAAACUGUGAAGUAUAUCUUAAACCUGGGCACUUAAAAGAUAUAUGGAGUUAGUAGUGCAACCUGCUCGGUCUGAUGAGUCCGUUUAAGGACGAAACAGC [GUUUAA] | 1.54 ± 0.058 | 1.74 ± 0.086
GCUGUCACCGAGAAACUGUGAAGUAUAUCUUAAACCUGGGCACUUAAAAGAUAUAUGGAGUUAGUAGUGCAACCUGCUCGGUCUGAUGAGUCCGUUUAGGGACGAAACAGC [GUUUAG] | 1.59 ± 0.041 | 1.78 ± 0.091
GCUGUCACCGAGAAACUGUGAAGUAUAUCUUAAACCUGGGCACUUAAAAGAUAUAUGGAGUUAGUAGUGCAACCUGCUCGGUCUGAUGAGUCCUUUGUCGGACGAAACAGC [UUUGUC] | 1.795 ± 0.011 | 1.9 ± 0.11
GCUGUCACCGAGAAACUGUGAAGUAUAUCUUAAACCUGGGCACUUAAAAGAUAUAUGGAGUUAGUAGUGCAACCUGCUCGGUCUGAUGAGUCCUUUGUGGGACGAAACAGC [UUUGUG] | 1.72 ± 0.042 | 1.91 ± 0.05
GCUGUCACCGAGAAACUGUGAAGUAUAUCUUAAACCUGGGCACUUAAAAGAUAUAUGGAGUUAGUAGUGCAACCUGCUCGGUCUGAUGAGUCCCUUGUUGGACGAAACAGC [CUUGUU] | 1.72 ± 0.07 | 1.85 ± 0.12
GCUGUCACCGAGAAACUGUGAAGUAUAUCUUAAACCUGGGCACUUAAAAGAUAUAUGGAGUUAGUAGUGCAACCUGCUCGGUCUGAUGAGUCCCUUGUGGGACGAAACAGC [CUUGUG] | 1.73 ± 0.03 | 1.91 ± 0.13
